The record followed here is publication PMC10799422, “A role for the ATP-dependent DNA ligase lig E of Neisseria gonorrhoeae in biofilm formation”.

For this data set, the target named is T1, Ngo-Lig E (ATP-dependent DNA ligase Lig E), mature, His-tagged (Neisseria gonorrhoeae MS11, UniProt PDB:8U6X_1 1-279).
T1 sequence: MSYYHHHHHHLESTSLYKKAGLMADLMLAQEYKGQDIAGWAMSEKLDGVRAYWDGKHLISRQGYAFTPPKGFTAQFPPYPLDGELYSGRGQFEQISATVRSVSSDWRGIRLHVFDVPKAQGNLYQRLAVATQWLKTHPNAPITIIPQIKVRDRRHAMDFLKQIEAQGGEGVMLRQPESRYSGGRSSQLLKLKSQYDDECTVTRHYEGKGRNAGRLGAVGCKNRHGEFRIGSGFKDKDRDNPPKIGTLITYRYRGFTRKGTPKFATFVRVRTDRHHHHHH
Kind of data set: X-ray crystallography (2.44 A); 5 mM EDTA; enzyme-adenylate; open non-catalytic conformation, non-specific engagement of unbroken duplex, only 6 bp visible (averaged register); Crystallization: 478.7 uM protein, 1.2 molar excess DNA, 5 mM EDTA, 1 h on ice; crystals in 0.5 M potassium thiocyanate, 0.1 M Bis Tris Propane pH 8.0, 18 C. The following applies: protein: recombinant; tags: C-terminal His (N-terminal His-MBP tag cleaved by TEV); nicked duplex, 3 strands; as printed the 9-mer and 11-mer leave a 1-nt gap (C) opposite the 21-mer; blunt outer ends.

B1: nicked 21-mer duplex used for co-crystallization (dsDNA)
DNA 1: ATTGCGACC
DNA 2: CACTATCGGAA
DNA 3: TTCCGATAGTGGGGTCGCAAT
modifications: 5'-phosphate on CACTATCGGAA
Consider B1, for which the binding result is on record as “binds”.
